PMC6555819, “Comprehensive study of nuclear receptor DNA binding provides a revised framework for understanding receptor specificity”

How the values were obtained:
RXRa = RXRa (Homo sapiens, UniProt P19793); test: no ligand; PBM; 180 nM; PBS pH 7.4, 2% milk, 0.02% Triton X-100, 1 mM DTT, BSA, 0.4 mg/ml salmon testes DNA; conditions: tags: His cleaved; chain copies: 2; label: surface-attached array probe
RARb:RXRa = RARb:RXRa (Homo sapiens, UniProt P10826;P19793 full;full); test: no ligand; PBM; 270 nM : 90 nM RXRa; PBS pH 7.4, 2% milk, 0.02% Triton X-100, 1 mM DTT, BSA, 0.4 mg/ml salmon testes DNA; conditions: tags: His kept;His cleaved; copies: 1;1; label: surface-attached array probe
RARb:RXRa, sequence (P10826 whole entry, chain 1 of 2): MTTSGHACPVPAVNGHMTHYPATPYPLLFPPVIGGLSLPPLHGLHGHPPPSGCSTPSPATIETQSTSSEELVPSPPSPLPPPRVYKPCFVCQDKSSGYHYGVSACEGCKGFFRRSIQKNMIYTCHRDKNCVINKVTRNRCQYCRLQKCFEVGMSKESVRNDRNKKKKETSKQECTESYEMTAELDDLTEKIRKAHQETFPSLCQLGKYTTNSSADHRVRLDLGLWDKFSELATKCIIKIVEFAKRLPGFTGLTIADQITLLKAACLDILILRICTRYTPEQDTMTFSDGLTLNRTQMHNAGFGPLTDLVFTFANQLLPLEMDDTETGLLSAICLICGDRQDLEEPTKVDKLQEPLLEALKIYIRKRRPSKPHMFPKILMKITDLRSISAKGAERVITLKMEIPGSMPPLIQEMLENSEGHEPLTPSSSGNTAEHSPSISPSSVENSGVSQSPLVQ
RARb:RXRa, sequence (P19793 whole entry, chain 2 of 2): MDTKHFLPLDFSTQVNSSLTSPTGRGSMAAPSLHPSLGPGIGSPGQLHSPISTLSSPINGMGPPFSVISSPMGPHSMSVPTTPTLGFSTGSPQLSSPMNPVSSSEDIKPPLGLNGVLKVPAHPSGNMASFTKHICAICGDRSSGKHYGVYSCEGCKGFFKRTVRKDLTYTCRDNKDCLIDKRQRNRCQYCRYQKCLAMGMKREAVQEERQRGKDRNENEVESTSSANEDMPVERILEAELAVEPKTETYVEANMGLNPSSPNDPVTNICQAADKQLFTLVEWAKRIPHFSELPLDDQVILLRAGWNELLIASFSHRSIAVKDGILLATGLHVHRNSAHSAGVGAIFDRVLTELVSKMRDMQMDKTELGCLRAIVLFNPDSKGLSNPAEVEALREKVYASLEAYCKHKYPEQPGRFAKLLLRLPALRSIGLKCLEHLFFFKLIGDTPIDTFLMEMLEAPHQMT
Summary of the method: (§1)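 Binding buffer was PBS pH 7.4 with 2% milk, 0.02% Triton X-100, 1 mM DTT, 0.2 mg/mL BSA and 0.4 mg/ml salmon testes DNA. In it, ligand-free nuclear receptor dimers were incubated 1 h on custom Agilent 4×180K protein-binding microarrays carrying double-stranded probes. Antibodies against each partner (one per run) detected binding, and z-scores were calculated against random background probes after regression normalization of scanned fluorescence.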

RARg:RXRa = RARg:RXRa (Homo sapiens, UniProt P13631;P19793 full;full); test: as above; conditions: tags: His kept;His cleaved; copies: 1;1; label: surface-attached array probe
RARg:RXRa, sequence (P13631 whole entry, chain 1 of 2): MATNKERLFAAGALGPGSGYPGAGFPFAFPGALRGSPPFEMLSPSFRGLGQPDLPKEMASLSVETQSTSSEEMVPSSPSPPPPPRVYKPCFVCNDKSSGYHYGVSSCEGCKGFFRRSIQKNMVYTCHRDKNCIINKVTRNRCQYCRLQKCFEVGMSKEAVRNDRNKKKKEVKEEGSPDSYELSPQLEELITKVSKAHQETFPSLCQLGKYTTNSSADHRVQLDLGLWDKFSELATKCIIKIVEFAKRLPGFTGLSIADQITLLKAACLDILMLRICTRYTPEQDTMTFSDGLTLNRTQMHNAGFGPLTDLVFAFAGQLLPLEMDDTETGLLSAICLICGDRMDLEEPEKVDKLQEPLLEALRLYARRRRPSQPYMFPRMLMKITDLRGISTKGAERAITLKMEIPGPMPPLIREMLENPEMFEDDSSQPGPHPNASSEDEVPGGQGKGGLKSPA
RARg:RXRa, sequence (P19793 whole entry, chain 2 of 2): as the sequence (P19793 whole entry, chain 2 of 2) above
Summary of the method: as §1

FXR:RXRa = FXR:RXRa (Homo sapiens, UniProt Q96RI1;P19793 full;full); test: as above; conditions: tags: His kept;His cleaved; copies: 1;1; label: surface-attached array probe
FXR:RXRa, sequence (Q96RI1 whole entry, chain 1 of 2): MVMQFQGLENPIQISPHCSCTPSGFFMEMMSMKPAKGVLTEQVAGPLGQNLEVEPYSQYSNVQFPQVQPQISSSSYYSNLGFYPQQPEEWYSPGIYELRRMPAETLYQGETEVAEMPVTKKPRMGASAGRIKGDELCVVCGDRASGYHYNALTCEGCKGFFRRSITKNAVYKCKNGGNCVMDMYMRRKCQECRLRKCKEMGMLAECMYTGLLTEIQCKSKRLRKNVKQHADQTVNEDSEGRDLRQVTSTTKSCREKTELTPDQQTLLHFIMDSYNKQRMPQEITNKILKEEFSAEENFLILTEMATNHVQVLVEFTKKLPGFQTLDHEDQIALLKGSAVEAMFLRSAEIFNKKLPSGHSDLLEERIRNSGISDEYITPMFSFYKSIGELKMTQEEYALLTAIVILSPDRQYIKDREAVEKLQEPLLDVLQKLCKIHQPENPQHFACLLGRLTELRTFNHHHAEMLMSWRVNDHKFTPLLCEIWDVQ
FXR:RXRa, sequence (P19793 whole entry, chain 2 of 2): as the sequence (P19793 whole entry, chain 2 of 2) above
Summary of the method: as §1

PPARa:RXRa = PPARa:RXRa (Homo sapiens, UniProt Q07869;P19793 full;full); test: as above; conditions: tags: GST kept;His cleaved; copies: 1;1; label: surface-attached array probe
PPARa:RXRa, sequence (Q07869 whole entry, chain 1 of 2): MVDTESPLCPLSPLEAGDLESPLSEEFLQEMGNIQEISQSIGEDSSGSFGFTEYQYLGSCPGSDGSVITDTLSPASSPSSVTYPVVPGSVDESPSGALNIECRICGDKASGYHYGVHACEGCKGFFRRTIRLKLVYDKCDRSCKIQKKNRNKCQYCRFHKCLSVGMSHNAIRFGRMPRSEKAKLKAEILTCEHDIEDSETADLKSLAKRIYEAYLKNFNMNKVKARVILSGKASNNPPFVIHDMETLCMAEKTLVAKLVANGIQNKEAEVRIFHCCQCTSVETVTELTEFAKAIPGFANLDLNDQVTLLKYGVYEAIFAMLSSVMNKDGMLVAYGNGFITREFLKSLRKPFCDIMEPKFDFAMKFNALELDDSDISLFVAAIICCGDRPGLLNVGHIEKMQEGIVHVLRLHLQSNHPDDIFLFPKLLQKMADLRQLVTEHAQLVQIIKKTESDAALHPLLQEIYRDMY
PPARa:RXRa, sequence (P19793 whole entry, chain 2 of 2): as the sequence (P19793 whole entry, chain 2 of 2) above
Summary of the method: as §1

RXRa, sequence (P19793 whole entry): as the sequence (P19793 whole entry, chain 2 of 2) above

Binder	binding signal (RXRa)	binding signal (RARb:RXRa)	binding signal (RARg:RXRa)	binding signal (FXR:RXRa)	binding signal (PPARa:RXRa)
NRC3_wobSeed44_DR1_T13C_o1 (dsDNA) DNA 1: GCTGAATGAGGTCAAAGATCAGGGAACGTGGCGTCGGCGATTGACAGCGTAGAATGAAGG DNA 2: CCTTCATTCTACGCTGTCAATCGCCGACGCCACGTTCCCTGATCTTTGACCTCATTCAGC	7.98 PBM z-score against 500 random probes				
NRC3_wobSeed134_DR5_T8G_o1 (dsDNA) DNA 1: GCGCTGCGAGGTCAACTGATGGTCAGCTAAAGCTCGGCGATTGACAGCGTAGAATGAAGG DNA 2: CCTTCATTCTACGCTGTCAATCGCCGAGCTTTAGCTGACCATCAGTTGACCTCGCAGCGC		5.49 PBM z-score against 500 random probes	7.43 PBM z-score against 500 random probes	7.7 PBM z-score against 500 random probes	
NRC3_wobSeed23_DR0_G12T_o1 (dsDNA) DNA 1: GCGGAACGAGGTCAAGTTGATAGCAGAGTTTGATGGGCGATTGACAGCGTAGAATGAAGG DNA 2: CCTTCATTCTACGCTGTCAATCGCCCATCAAACTCTGCTATCAACTTGACCTCGTTCCGC		5.45 PBM z-score against 500 random probes		8.18 PBM z-score against 500 random probes	
NRC3_wobSeed13_DR0_A15C_o1 (dsDNA) DNA 1: GCCGTCCAAGGTCACGGTCAGTGAAAGAGACTCGAAGCGATTGACAGCGTAGAATGAAGG DNA 2: CCTTCATTCTACGCTGTCAATCGCTTCGAGTCTCTTTCACTGACCGTGACCTTGGACGGC		5.97 PBM z-score against 500 random probes		8.3 PBM z-score against 500 random probes	
NRC3_random_hg19_72_o1 (dsDNA) DNA 1: GCTCCCAACTAGCTGGAACTACAGGCACCTGCCACCGCGATTGACAGCGTAGAATGAAGG DNA 2: CCTTCATTCTACGCTGTCAATCGCGGTGGCAGGTGCCTGTAGTTCCAGCTAGTTGGGAGC		-0.32 PBM z-score against 500 random probes			0.23 PBM z-score against 500 random probes
NRC3_random_hg19_437_o1 (dsDNA) DNA 1: GCCGTGTTGGCAGGTGCCTGTACTCTCAGCTACTCGGCGATTGACAGCGTAGAATGAAGG DNA 2: CCTTCATTCTACGCTGTCAATCGCCGAGTAGCTGAGAGTACAGGCACCTGCCAACACGGC		-0.44 PBM z-score against 500 random probes			-0.58 PBM z-score against 500 random probes
NRC3_wobSeed49_DR2_C7G_o1 (dsDNA) DNA 1: GCCAAAGTAGGTCAAGAGGTCAAAGTCCGCTTCCCGGCGATTGACAGCGTAGAATGAAGG DNA 2: CCTTCATTCTACGCTGTCAATCGCCGGGAAGCGGACTTTGACCTCTTGACCTACTTTGGC	8.95 PBM z-score against 500 random probes				
NRC3_wobSeed1_DR0_C7A_o1 (dsDNA) DNA 1: GCCAAAATAGGTCAAGGTCAAAGTCGGTTTGTGCCAGCGATTGACAGCGTAGAATGAAGG DNA 2: CCTTCATTCTACGCTGTCAATCGCTGGCACAAACCGACTTTGACCTTGACCTATTTTGGC		5.5 PBM z-score against 500 random probes			6.51 PBM z-score against 500 random probes
NRC3_wobSeed4_DR0_A20T_o1 (dsDNA) DNA 1: GCCCTACTGGGCCAAGGTCTTTGATCAGTCAAAGCAGCGATTGACAGCGTAGAATGAAGG DNA 2: CCTTCATTCTACGCTGTCAATCGCTGCTTTGACTGATCAAAGACCTTGGCCCAGTAGGGC		0.33 PBM z-score against 500 random probes			0.29 PBM z-score against 500 random probes
NRC3_wobSeed26_DR1_T8C_o1 (dsDNA) DNA 1: GCTCTAGCTGGTCAAAGGTCACACACTCGAAATGCGGCGATTGACAGCGTAGAATGAAGG DNA 2: CCTTCATTCTACGCTGTCAATCGCCGCATTTCGAGTGTGTGACCTTTGACCAGCTAGAGC	8.94 PBM z-score against 500 random probes				
NRC3_wobSeed69_DR2_G10T_o1 (dsDNA) DNA 1: GCAGTCAAATTTCACTAGGTAACGTAAGATTCAGCTGCGATTGACAGCGTAGAATGAAGG DNA 2: CCTTCATTCTACGCTGTCAATCGCAGCTGAATCTTACGTTACCTAGTGAAATTTGACTGC		0.27 PBM z-score against 500 random probes			0.35 PBM z-score against 500 random probes
NRC3_random_hg19_482_o1 (dsDNA) DNA 1: GCCATCCTGTAAGACACTTCCTCTAAGAAATGGCTAGCGATTGACAGCGTAGAATGAAGG DNA 2: CCTTCATTCTACGCTGTCAATCGCTAGCCATTTCTTAGAGGAAGTGTCTTACAGGATGGC		-0.03 PBM z-score against 500 random probes	0.13 PBM z-score against 500 random probes		
NRC3_random_hg19_369_o1 (dsDNA) DNA 1: GCCAACCCTCTTTCATGTCTGTAAGGAGCTTACCTGGCGATTGACAGCGTAGAATGAAGG DNA 2: CCTTCATTCTACGCTGTCAATCGCCAGGTAAGCTCCTTACAGACATGAAAGAGGGTTGGC		0.12 PBM z-score against 500 random probes	-0.32 PBM z-score against 500 random probes	0.38 PBM z-score against 500 random probes	
NRC3_random_hg19_320_o1 (dsDNA) DNA 1: GCCACACTTGCAGAGGAGAAAGGAGTTTGGAAAGCCGCGATTGACAGCGTAGAATGAAGG DNA 2: CCTTCATTCTACGCTGTCAATCGCGGCTTTCCAAACTCCTTTCTCCTCTGCAAGTGTGGC		-0.07 PBM z-score against 500 random probes		0.28 PBM z-score against 500 random probes	-0.22 PBM z-score against 500 random probes
NRC3_wobSeed87_DR3_G10A_o1 (dsDNA) DNA 1: GCCGAACTAAGTCATCCAGGACAGTGAATACATTGAGCGATTGACAGCGTAGAATGAAGG DNA 2: CCTTCATTCTACGCTGTCAATCGCTCAATGTATTCACTGTCCTGGATGACTTAGTTCGGC		0.37 PBM z-score against 500 random probes	0.43 PBM z-score against 500 random probes		
NRC3_random_hg19_440_o1 (dsDNA) DNA 1: GCGAAGGAGTTCTTATCTGGCCAGTTCCCATCCTGTGCGATTGACAGCGTAGAATGAAGG DNA 2: CCTTCATTCTACGCTGTCAATCGCACAGGATGGGAACTGGCCAGATAAGAACTCCTTCGC		-0.36 PBM z-score against 500 random probes	-0.83 PBM z-score against 500 random probes		-0.35 PBM z-score against 500 random probes
NRC3_wobSeed109_DR4_G25T_o1 (dsDNA) DNA 1: GCCGTCCAAGGTCATAGGAGGTCATTGAAGACAGATGCGATTGACAGCGTAGAATGAAGG DNA 2: CCTTCATTCTACGCTGTCAATCGCATCTGTCTTCAATGACCTCCTATGACCTTGGACGGC	7.89 PBM z-score against 500 random probes				
NRC3_random_hg19_411_o1 (dsDNA) DNA 1: GCATTGAGCAGGTGTTGATTACAAATGAGATGTTTCGCGATTGACAGCGTAGAATGAAGG DNA 2: CCTTCATTCTACGCTGTCAATCGCGAAACATCTCATTTGTAATCAACACCTGCTCAATGC		0 PBM z-score against 500 random probes			0.03 PBM z-score against 500 random probes
NRC3_wobSeed22_DR0_G13C_o1 (dsDNA) DNA 1: GCTTACCAAGGTCAAGGTCGTTGATCCCTCTGTAGAGCGATTGACAGCGTAGAATGAAGG DNA 2: CCTTCATTCTACGCTGTCAATCGCTCTACAGAGGGATCAACGACCTTGACCTTGGTAAGC		5.5 PBM z-score against 500 random probes		7.79 PBM z-score against 500 random probes	
NRC3_wobSeed29_DR1_T22C_o1 (dsDNA) DNA 1: GCGCTTACGGGTCAAAGGTTACAGCATGAATAGAATGCGATTGACAGCGTAGAATGAAGG DNA 2: CCTTCATTCTACGCTGTCAATCGCATTCTATTCATGCTGTAACCTTTGACCCGTAAGCGC	9.84 PBM z-score against 500 random probes				
NRC3_random_hg19_141_o1 (dsDNA) DNA 1: GCATTCTACCACTTCTTGCACCTAGTGCTGCTGTTCGCGATTGACAGCGTAGAATGAAGG DNA 2: CCTTCATTCTACGCTGTCAATCGCGAACAGCAGCACTAGGTGCAAGAAGTGGTAGAATGC		0.19 PBM z-score against 500 random probes			0.17 PBM z-score against 500 random probes
NRC3_random_hg19_306_o1 (dsDNA) DNA 1: GCAGAGCCCACTTCACTTCCTCAGAAACAGCCCTCCGCGATTGACAGCGTAGAATGAAGG DNA 2: CCTTCATTCTACGCTGTCAATCGCGGAGGGCTGTTTCTGAGGAAGTGAAGTGGGCTCTGC		-0.38 PBM z-score against 500 random probes			-0.34 PBM z-score against 500 random probes
NRC3_wobSeed46_DR1_G13T_o1 (dsDNA) DNA 1: GCTTACCAAGGTTAAAGGTCGTTGATGCACGCCTTGGCGATTGACAGCGTAGAATGAAGG DNA 2: CCTTCATTCTACGCTGTCAATCGCCAAGGCGTGCATCAACGACCTTTAACCTTGGTAAGC	7.99 PBM z-score against 500 random probes				
NRC3_wobSeed135_DR5_G10A_o1 (dsDNA) DNA 1: GCCGAACTAAGTCATTGACAGGACAGTGAATAGTAAGCGATTGACAGCGTAGAATGAAGG DNA 2: CCTTCATTCTACGCTGTCAATCGCTTACTATTCACTGTCCTGTCAATGACTTAGTTCGGC		0.2 PBM z-score against 500 random probes	0.48 PBM z-score against 500 random probes		
NRC3_random_hg19_52_o1 (dsDNA) DNA 1: GCCCAGGAGCAGTGGCTCACGCCTGTAATCCCAGCAGCGATTGACAGCGTAGAATGAAGG DNA 2: CCTTCATTCTACGCTGTCAATCGCTGCTGGGATTACAGGCGTGAGCCACTGCTCCTGGGC		-0.55 PBM z-score against 500 random probes			-0.74 PBM z-score against 500 random probes
NRC3_wobSeed97_DR4_T28C_o1 (dsDNA) DNA 1: GCCAAACTAGGTCACGAAAGGTCAAAGCCGAATGACGCGATTGACAGCGTAGAATGAAGG DNA 2: CCTTCATTCTACGCTGTCAATCGCGTCATTCGGCTTTGACCTTTCGTGACCTAGTTTGGC	8.92 PBM z-score against 500 random probes				
NRC3_wobSeed73_DR3_G26C_o1 (dsDNA) DNA 1: GCCAAACTAGGTCACAGAGGTCAAACTCCGTGCGTAGCGATTGACAGCGTAGAATGAAGG DNA 2: CCTTCATTCTACGCTGTCAATCGCTACGCACGGAGTTTGACCTCTGTGACCTAGTTTGGC	8.89 PBM z-score against 500 random probes				
